Laboratory results taken from US20040180389A1.

Biological target: murine GM-CSF receptor (on FDC-P1 cells) (murine) (UniProt Q00941)
Test: cell-based or functional assay

Sequence of UniProt Q00941 (Q00941 30-388, chain 1 of 2): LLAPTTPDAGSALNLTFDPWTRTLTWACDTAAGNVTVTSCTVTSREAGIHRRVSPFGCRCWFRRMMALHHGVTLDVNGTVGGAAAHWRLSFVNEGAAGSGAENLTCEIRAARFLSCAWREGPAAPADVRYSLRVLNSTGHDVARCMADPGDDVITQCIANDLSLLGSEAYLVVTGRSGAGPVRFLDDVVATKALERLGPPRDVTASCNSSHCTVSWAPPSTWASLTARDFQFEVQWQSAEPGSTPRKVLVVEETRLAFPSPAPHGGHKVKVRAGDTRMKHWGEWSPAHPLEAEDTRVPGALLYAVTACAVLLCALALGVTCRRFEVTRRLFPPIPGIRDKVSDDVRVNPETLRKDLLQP
Sequence of UniProt Q00941 (P26955 23-896, chain 2 of 2, further chain): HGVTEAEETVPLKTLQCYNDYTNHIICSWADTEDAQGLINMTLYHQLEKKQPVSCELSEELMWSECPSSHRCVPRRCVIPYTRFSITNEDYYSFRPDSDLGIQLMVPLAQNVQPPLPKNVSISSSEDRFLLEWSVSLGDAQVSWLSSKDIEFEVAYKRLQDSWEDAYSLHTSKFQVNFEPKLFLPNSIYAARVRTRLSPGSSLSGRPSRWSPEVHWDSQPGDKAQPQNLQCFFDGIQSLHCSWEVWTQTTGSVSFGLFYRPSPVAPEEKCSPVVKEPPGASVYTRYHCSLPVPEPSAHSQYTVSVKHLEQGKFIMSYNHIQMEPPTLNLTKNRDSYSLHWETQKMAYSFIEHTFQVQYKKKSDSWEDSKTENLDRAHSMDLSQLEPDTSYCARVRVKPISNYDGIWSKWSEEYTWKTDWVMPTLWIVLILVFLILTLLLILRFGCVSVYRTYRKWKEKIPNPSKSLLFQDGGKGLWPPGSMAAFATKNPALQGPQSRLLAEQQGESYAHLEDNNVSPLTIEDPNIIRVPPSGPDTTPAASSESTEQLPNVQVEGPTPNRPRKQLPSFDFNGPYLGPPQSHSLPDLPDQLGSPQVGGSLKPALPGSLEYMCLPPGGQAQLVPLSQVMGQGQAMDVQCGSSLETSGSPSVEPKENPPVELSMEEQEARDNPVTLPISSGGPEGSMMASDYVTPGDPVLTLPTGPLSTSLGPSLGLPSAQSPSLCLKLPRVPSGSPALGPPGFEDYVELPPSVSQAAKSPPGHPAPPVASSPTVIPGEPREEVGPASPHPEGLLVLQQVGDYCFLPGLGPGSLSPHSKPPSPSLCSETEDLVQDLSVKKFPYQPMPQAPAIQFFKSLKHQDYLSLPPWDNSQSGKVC

Substance: GPI-GM-CSF (murine GM-CSF fused to the S. cerevisiae Gas1 GPI modification signal sequence, expressed in yeast clone SC-GM-GPI) (from UniProt P01587 18-141; P22146 474-528) (other; the values are: proliferation increase vs soluble GM-CSF)
- proliferation of FDC-P1 cells (Biotrak BrdU cell proliferation ELISA), 10 ng GM-CSF equivalent per well: 25%
